Stoichiometry N data for two substances are collected here from paper PMC7840905.

In experiment [1] the target is SARS-CoV-2 Nsp15 H235A (SARS-CoV-2). Nature of the experiment: cryo-EM structure.
Experiment [2] has the same target. Kind of experiment: SEC. (SEC sorts molecules by how far they enter the pores of the column.)
Experiment [3] deals with SARS-CoV-2 Nsp15 H250A (SARS-CoV-2). Nature of the experiment: SEC.

Take SARS-CoV-2 Nsp15 H235A (enzyme): the stoichiometry N in experiment [1] and in experiment [2] was 6 in each case.
With SARS-CoV-2 Nsp15 H250A (enzyme), in experiment [3], the stoichiometry N amounted to 6.

A word on the stoichiometry N: it is a count of units in the complex or per binding partner.
